The DeepSol protein solubility set

assay: soluble on expression in E. coli; label from the status in PepcDB or PDB records

| Sequence | soluble on expression in E. coli |
| --- | --- |
| HERRTVLAEWSIGIDIGGTFTDLVALDYAGGKLHSLKMLTTYDDPSLAVMEGVRQLMATCGIAASEVGRVVHATTLFTNALISRAGARTGLLCNQGFMDAIEIGNERKYDLYDLAIDRPPPLVPRDLRREIPGRLDAHGNELEPLDRQAVVAMARSLADAGATSIAVCLLHAYASPRHEQQVHAWIRQAL | not soluble |
| HGPKTGTPETKTVEIPFETKREFNPKLQPGEERVKQEGQPGSKTITTPITVNPLTGEKVGEGQPTEEITKQPVDKIVEFGGEK | soluble |
| HHHHHHMASSAQDGNNPLFSPYKMGKFNLSHRVVLAPMTRCRALNNIPQAALGEYYEQRATAGGFLITEGTMISPTSAGFPHVPGIFTKEQVREWKKIVDVVHAKGAVIFCQLWHVGRASHEVYQPAGAAPISSTEKPISNRWRILMPDGTHGIYPKPRAIGTYEISQVVEDYRRSALNAIEAGFDGIEIHGAHGYLIDQFLKDGINDRTDEYGGSLANRCKFITQVVQAVVSAIGADRVGVRVSPAIDHLDAMDSNPLSLGLAVVERLNKIQLHSGSKLAYLHVTQPRYVAYGQTEAGRLGSEEEEARLMRTLRNAYQGTFICSGGYTRELGIEAVAQGDADLVSYGRLFISNPDLVMRIKLNAPLNKFNRKTFYTQDPVVGYTDYPFLQGNGSNGPLSRL | soluble |
| HLEDVKFMIVGLPDVGLVGAITGMHLIRSKDMSYTVGIDHYGALPPVVIMNRGRVLHPIRIYRSGDVAALITDVPILPAAIPSFSAAVVEYSRRRGIEYIISATGVGNPKRLEQEKPSLYWLASDKKASLLASSLRMASEPEQGIIVGPYAIILKEAMKKHVHNLVLLADSFIDIPDPEAAAVIVEGINSITGLNVSVDELIKQAEEIKLRMRDLMKETKAVMARMGKEMEYRAPILYT | not soluble |
| HLKFQSVFDIIGPVMIGPSSSHTAGAVRIGKVVHSIFGEPSEVTFHLYNSFAKTYQGHGTDKALVAGILGMDTDNPDIKNSLEIAHQKGIKIYWDILKDSNSPHPNTAKITVKNGDRSMSITGVSIGGGNIQVTELNG | not soluble |
| HLPKPTLWAEPGSVITQGSPVTLRCQGGQETQEYRLYREKKTAPWITRIPQELVKKGQFPIPSITWEHAGRYRCYYGSDTAGRSESSDPLELVVTGAYIKPTLSAQPSPVVNSGGNVTLQCDSQVAFDGFILCKEGEDEHPQCLNSQPHARGSSRAIFSVGPVSPSRRWWYRCYAYDSNSPYEWSLPSDLLELLVLG | soluble |
| HMARSLYPLGVSRSLPPYRRTFNHQTFIFVKSILRLGVSMEEEEFDIREALANGEHLEKILIMAKYDESVLKKLIELLDDDLWTVVKNAISIIMVIAKTREDLYEPMLKKLFSLLKKSEAIPLTQEIAKAFGQMAKEKPELVKSMIPVLFANYRIGDEKTKINVSYALEEIAKANPMLMASIVRDFMSMLSSKNREDKLTALNFIEAMGENSFKYVNPFLPRIINLLHDGDEIVRASAVEALVHLATLNDKLRKVVIKRLEELNDTSSLVNKTVKEGISRLLLLEGHSSS | soluble |
| HMGARASVLSGGELDKWEKIRLRPGGKKQYKLKHIVWASRELERFAVNPGLLETSEGCRQILGQLQPSLQTGSEELRSLYNTIAVLYCVHQRIDVKDTKEALDKIEEEQNKSKKKAQQAAADTGNNSQVSQNY | soluble |
| HMSSLQRASVSFNKPGHIPFGAVQGYAPGGVPAYSNKHDHYFSGERNIEDNIFFGFKYQCVEFARRWLLVRKGLLLPDVNWACHIFQLKEVRDAATTESFAVLQVRNGTTTKPEADALLVYPSTDANPVGHVGTITEVGDDYVCVADQNYRFHKWESSCAYKLKLDHRDGIWTIIDDIDADEIEIPLGWLTFPGRANRPEGAPPVALHPSLHFKEPPKPYLLRRNFLPTESKANWLDMNNPAERLFVEEFGMDVSRTRLEEKVVSYYESNHEFHLRCVAYGTQLHAIFMEATAQVIESDEKLRLFAIPEEFWPRIRHSWKYQQTYISGRFDFAFNNETGEVKCFEYNADSASTLLECGLIQQKWAESVGLDKQDTRGSGFAVERNLKMAWANSGATGRVHFCVDEEREEQYTALYCMQAAEAVGLEGKLCILFDEFRFDDNGHVVDSDGVRVRNVWKTWMWESAITDYYAAREERGENWKPSPKDKVRLCDLLLGDDWEILYFEPMWKVIPSNKAILPMIYHNHPEHPAILKAEYELTDELRKHGYAKKPIVGRVGSNVIITSGDGVVHAESGGKYGKRNMIYQQLFELKKQDDYYAIIGGWMIGDAFSGTGIREDKSVITGVDSPFAAVRIKTDKLPHPVTLKDIDKMAEDE | soluble |
| HMTHIDDYSTWDIVKATQYGIYERCRELVEAGYDVRQPDKENVTLLHWAAINNRIDLVKYYISKGAIVDQLGGDLNSTPLHWATRQGHLSMVVQLMKYGADPSLIDGEGCSCIHLAAQFGHTSIVAYLIAKGQDVDMMDQNGMTPLMWAAYRTHSVDPTRLLLTFNVSVNLGDKYHKNTALHWAVLAGNTTVISLLLEAGANVDAQNIKGESALDLAKQRKNVWMINHLQEARQAKGYDN | soluble |
| HNNLLSQLGSSHNSITYDIIFGNKDTKNYYAQFAKKHQTHLYSQISSSNQQELKYVDNDPNLKIKEEAAKSTVQNLTVYS | soluble |
| HRPEGLEQLEAQTNFTKRELQVLYRGFKNECPSGVVNEETFKQIYAQFFPHGDASTYAHYLFNAFDTTQTGSVKFEDFVTALSILLRGTVHEKLRWTFNLYDINKDGYINKEEMMDIVKAIYDMMGKYTYPVLKEDTPRQHVDVFFQKMDKNKDGIVTLDEFLESCQEDDNIMRSLQLFQNVM | soluble |
| HSEEAAYYAVEIGRMFDLGDEKLEKLYWAGLLHDIGKIYVPQVVLNKTSKLDEREFELIKIHPVRGYELVKEIEGFEDVAIWIRHHHERWDGKGYPDGLKGEEIPFEARVLCVADSYQAM | soluble |
| HSSGLVPRGSHMSQERILDGEEDEINHKIFDLKRTLKDNLPLDRDFIDRLKRYFKDPSDQVLALRELLNEKDLTAEQVELLTKIINEIISGSEKSVNAGINSAIQAKLFGNKMKLEPQLLRACYRGFIMGNISTTDQYIEWLGNFGFNHRHTIVNFVEQSLIVDMDSEKPSCNAYEFGFVLSKLIAIKMIRTSDVIFMKKLESSSLLKDGSLSAEQLLLTLLYIFQYPSESEQILTSVIEVSRASHEDSVVYQTYLSSVNESPHDIFKSESEREIAINILRELVTSAYKKELSR | soluble |
| HVEQSNKDELLLEEITSWLEKNTDGKIVVFCGDKTVADNVYKFIEQNLPSVERHIDGKLPGFNISPQYNVLICDQSGEDGLNLQGKCRLAIHYSLPRTVMRIEQRIGRLNRYSASSIGVLPV | not soluble |
| IDENSFWIEGYFKETDLAGIAPNDRATVTLLMHDDVALEGKIKSIGFGIAKKDGTTGNDLLPTVNPNFQWIRLAQRIPVKVTLNEMPKDLQLRVGMTASIKIIKH | not soluble |
| IDFHRGTQGEGRVEVELSQPGAVINVHSHGSRLLVEFMKAYLPPNLERRLNVLDFATPVQSVETVARDGNVQMIIEPKGRWEHTSWQTGTSFVVEIRPMAEAED | not soluble |
| IDLSNALPGSRRGFLKGAAVVGLTIGFQWSGARRALAAALPDAGFAPNAFLRIAPDDSVTVIAKHVEMGQGAYTGIATIVAEELDADWSKVRVESAPADAKRYANLAFGTMQGTGGSSAMANSWMQLREAGAKARAMLVEAAARQWQVPAAELRTRDGFVEHPTSQRKASYGSLAAAAAELPVPEKVQLKDPKDFRLIGHQAPRVDVPGKTDGSAQFTLDVSLPGMLVALLQRPPLFGATVKSFDATATRAIPGVVEVVQVPHGVAVVAKGFWAAKQGRDALKVEWDESKAEKRGSEALMAEYRKLAEQPGKPARRDGDAAKAVAGATRRIAASYEFPFLAHAPMEPLDAVVRLTADSCEIWAGDQFQTVDQGNAARTAGLKPEQVKINTLYAGGSFGRRANAWSDYIVEAVSIAKALGANGVPVKLQWTREDDIHGGFYRPMYYHRLEAGLDADGKLVGWQHRIVGQSILEGTPFAAVMVKDGIDATSVEGAANLPYAVPNVSVELSTTQVGVPVLWWRVVGSSHTVYAVEAFIDEAAQAAGKDPYLFRRDLLAEQPRLRGVLELAAEKAGWDPSRPLPAGRGRGIAVTEAFKTFVAQVVEVSVDKDGKLKVERVVCAVDCGIPINPDVIAAQMEGGIGFGLGAILHSAITLKDGKVEQNNFDGYQVLRIAEMPKVEVHIVPSGEAPTGVGEPGVAPIGPALANAIFAATGQRLYNLPFPTSFA | not soluble |
| IGFQRGAQGEGLVVIDLQGTNTPVDVQQQGSKVVVRFPGIKIPTHLARRLNTTDFATPVASIDSYNDGSNGVISIQSTGSYEYMAYQAENKLTISLKRPQDNV | not soluble |
| IGKLKLSARGTFTFTRNKILEYDELPQKYGYQAVTGTRVSENTLYIADRLYTEDDFIVSTNANGLKTYKLRSELPRPTLGGLIGPGDIKYVDVNGDGVIDSYDQVRGVGNPSTPEIIYGFGLNAEYKGFYASIFFQGAGNTSVLLGGATSEGWYPFSWGVDQSNYRTFALDRWTENNPSQDVIIPRLHKNNANNANNRVASTWWLRNGSFLRLKNIEFGYQLPKKFMDKIGFEAARIYIMGYNLAVWDDIKYFDPEAGNANAGLNYPLPRTFTLGLDFTF | not soluble |
| IKDFSYGARFNLSDQKDKLVDYGVEYNGFVAGVNQKVQGYSLGSIFGYRTDGYFTSEEEVKNSAAFNKAITGVGDIKYIDKDGDGKISAPNDLEYLGTTTPRYTFGLNLTAAWKGFDLGVLLQGVGKRNFYLSSEVMNPYYATWNNFSYKMHNDYWTPENPNAAFPRYYAGANHNYQISDHWLQNAAYVRLKNLQLGYTISPKLTKSWGIQRLRVYFSGDNLCEYSKLNDNFDPELSDINGYVYPIMRNFSFGINVTL | not soluble |
| IKDWTWKMGGNISYNKNKVVTLPDNGQPKNRIGGQQIYTGRKVLDEAGNQVDEVIFVGGKQEGQEPGILVGYKAEGLYKDWKDIPGDLVVKTGNYQGKYQYGPKAYAALSDAEKAKALQIEPGDVKWKDINNDGTIDAFDQIVIGNTTPHWFGGFNTTLTWKGLTLYGRFDFALDYWIYDNTTPWFLGCMQGGYNTTTDVFNTWSEENPNAKYPRYVWADQLGTANYYRTSTMFAYKGNYLAIREISLSYSLPQNIARKFYCQKLDVSVTGQNLGYITSANVATPEVSSAGSGYALPRTLLFGINVTF | not soluble |
| INTVGYLEQKMFAAMVADNQMAMVMLNPKNLKASNGEEELAGQTWYWKVAPVATTQPLLKAFDVSVAAEKQASPIITVRSYVAK | soluble |
| IPEYVDWRQKGAVTPVKNQGSCGSCWAFSAVVTIEGIIKIRTGNLNQYSEQELLDCDRRSYGCNGGYPWSALQLVAQYGIHYRNTYPYEGVQRYCRSREKGPYAAKTDGVRQVQPYNQGALLYSIANQPVSVVLQAAGKDFQLYRGGIFVGPCGNKVDHAVAAVGYGPNYILIKNSWGTGWGENGYIRIKRGTGNSYGVCGLYTSSFYPVKN | soluble |
| IQVFVKNPDGGSYAYAINPNSFILGLKQQIEDQQGLPKKQQQLEFQGQVLQDWLGLGIYGIQDSDTLILSKKKG | soluble |
| ISFVIAAPEAIAAAATDLASIGSTIGAANAAAAANTTAVLAAGADQVSVAIAAAFGAHGQAYQALSAQAATFHIQFVQALTAGAGSYAAAEAASAASITSPLLDAINAPFLAALGRPLIGNGADGAPGTGAAGGAGGLLFGNGGAGGSGAPGGAGGLLFGNGGAGGPGASGGALG | not soluble |
| ITDRKVLERELATRNAFLTAVLQTSVSAIVALNAEGGIVYANDEARRLLVLQPHRGGLRMEAVLETLDGRPLPEADMPSALVRATGAPLHDLRYAIRRPDGQFGILSINAAPLPQAADDARIVISVTDIT | not soluble |
| KATRDSSTLNVDTYVNWIKRVFRPQRLRLLERKELVVEEADYEYALGEIANVRSDAQQMLGSRIMSRPLPFIWLFGGDLSSQKELSVRVDTMVEYLHNTTDNLIFAKLMDVPPLPTTLSHWLPKDKRS | not soluble |
